Test results published in patent publication US10851401B2, “Broth microdilution method for evaluating and determining minimal inhibitory concentration of antibacterial polypeptides” (priority 2016, dated 2020).

Columns and labels:
[1] = tested on: Staphylococcus aureus strains including MSSA and MRSA strains; assay: Vancomycin in modified BMD method versus standard unsupplemented CA-MHB (FIG. 10); format: cell-based; conditions: comparison of the two media
Experimental: FIG. 10 depicts vancomycin activity assessed using the modified BMD method in comparison to method with standard CAMHB broth unsupplemented. Various Staphylococcus aureus strains including MSSA and MRSA strains were evaluated.
Standard antibiotic vancomycin was evaluated in the modified BMD method. The MIC50, MIC90 and range were equivalent using standard CA-MHB versus CA-MHB supplemented with horse serum and DTT (FIG. 10).

[2] = clinical grade, recombinantly produced in E. coli; cited from earlier work
[3] = tested on: S. aureus ATCC 700699; assay: BMD MIC assay of a single strain in CA-MHB, human blood matrices and supplemented broth
[4] = tested on: 30 S. aureus strains; assay: Broth microdilution (BMD) MIC, identification of new testing conditions, panel of 30 strains
[5] = oxidation and inactivation of active-site cysteine thiol in MHB
[6] = Charge (pI); format: physicochemical
[7] = tested on: MRSA strain ATCC 29213; assay: MIC assays under different conditions (FIG. 7); conditions: MHBII alone
[8] = MIC assays under different conditions (FIG. 7)
[9] = tested on: S. aureus strains; assay: Standard BMD susceptibility testing, broth versus human blood/serum/plasma; format: cell-based
Excerpt: The supplementation with DTT serves to stabilize lysin polypeptide and enable the use of frozen micro broth dilution panels for MIC determination. DTT is a common reducing agent used to prevent the oxidation and inactivation of enzymes during storage or in the context of in vitro assays.

[10] = tested on: 223 contemporary clinical MSSA and MRSA strains; assay: First modified (stopgap) BMD method: polypropylene plates, MHBII with 1 mM DTT; format: cell-based, Staphylococcus aureus; conditions: MHBII supplemented with 1 mM DTT
Experimental: Two modified BMD methods were initially developed to test PlySs2/CF-301. In the first method, the major modifications were that polypropylene plates were used and MHBII was supplemented with 1 mM DTT. DTT (DL-Dithiothreitol) is a common molecular biology reagent used to keep enzymes in a reduced state. […] This procedure was a stop gap because of the use of polypropylene, a remaining disconnect from human blood MIC values, and problems with frozen panels.

[11] = tested on: 25 S. aureus strains; assay: BMD MIC, validation of the horse serum/DTT method with varied sources, conditions and storage
[12] = 100% Human Serum, Fresh dilutions
[13] = CAMHB, 0.5 mM DTT, Fresh dilutions
[14] = CAMHB, 25% horse serum, 0.5 mM DTT, Fresh dilutions
[15] = CAMHB, 25% horse serum, 0.5 mM DTT, Thawed
[16] = CAMHB, 25% horse serum, Fresh dilutions
[17] = Bacterial inoculum 5 × 10^4 CFU/ml
[18] = Bacterial inoculum 5 × 10^5 CFU/ml (first line, r9)
[19] = Bacterial inoculum 5 × 10^5 CFU/ml (second line, r10)
[20] = Bacterial inoculum 5 × 10^6 CFU/ml
[21] = CAMHB source BBL BD (Powder), Freeze/Thaw no
[22] = CAMHB source BBL BD (Powder), Freeze/Thaw yes
[23] = CAMHB source BD (Liquid), Freeze/Thaw no
[24] = CAMHB source BD (Liquid), Freeze/Thaw yes
[25] = CAMHB source Sigma-Aldrich (Powder), Freeze/Thaw no
[26] = CAMHB source Sigma-Aldrich (Powder), Freeze/Thaw yes
[27] = CAMHB source Teknova (Liquid), Freeze/Thaw no
[28] = CAMHB source Teknova (Liquid), Freeze/Thaw yes
[29] = DTT source G-Biosciences (powder), Freeze/Thaw no
[30] = DTT source G-Biosciences (powder), Freeze/Thaw yes
[31] = DTT source Sigma (liquid), Freeze/Thaw no
[32] = DTT source Sigma (liquid), Freeze/Thaw yes
[33] = DTT source Sigma (powder), Freeze/Thaw no
[34] = DTT source Sigma (powder), Freeze/Thaw yes
[35] = Incubation condition: 5% CO^2 (37° C.)
[36] = Incubation condition: Ambient air (30° C.)
[37] = Incubation condition: Ambient air (37° C.)
[38] = horse serum/DTT method, reference value for the modifications tested
[39] = panels stored at −80° C. for 1 day
[40] = panels stored at −80° C. for 3 days
[41] = panels stored at −80° C. for 7 days
[42] = panels stored at −80° C. for 14 days
[43] = panels stored at −80° C. for 60 days
[44] = panels stored at −80° C. for 90 days
[45] = panels stored at −80° C. for 120 days
[46] = panels stored at −80° C. for 180 days
[47] = panels stored at −80° C. for 365 days

CN[C@H](CC(C)C)C(=O)N[C@H]1C(=O)N[C@@H](CC(N)=O)C(=O)N[C@H]2C(=O)N[C@H]3C(=O)N[C@H](C(=O)N[C@H](C(=O)O)c4cc(O)cc(O)c4-c4cc3ccc4O)[C@H](O)c3ccc(c(Cl)c3)Oc3cc2cc(c3O[C@@H]2O[C@H](CO)[C@@H](O)[C@H](O)[C@H]2O[C@H]2C[C@](C)(N)[C@H](O)[C@H](C)O2)Oc2ccc(cc2Cl)[C@H]1O [vancomycin]
equivalent: MIC50, MIC90 and range, standard CA-MHB versus CA-MHB supplemented with horse serum and DTT [1]

B1: CF-301: bacteriophage lysin polypeptide derived from a Streptococcus suis prophage, amino acid sequence of FIG. 1 / SEQ ID NO: 1; 26 kDa bacteriolytic enzyme (protein, listed as Streptococcus suis)
chain: MTTVNEALNNVRAQVGSGVSVGNGECYALASWYERMISPDATVGLGAGVGWVSGAIGDTISAKNIGSSYNWQANGWTVSTSGPFKAGQIVTLGATPGNPYGHVVIVEAVDGDRLTILEQNYGGKRYPVRNYYSAASYRQQVVHYITPPGTVAQSAPNLAGSRSYRETGTMTVTVDALNVRRAPNTSGEIVAVYKRGESFDYDTVIIDVNGYVWVSYIGGSGKRNYVATGATKDGKRFGNAWGTFK
2-128: Range ([4]; CAMHB, Fresh dilutions)
0.25 to 1 µg/mL: Range [11, 17] | Range [11, 20] | Range [11, 23] | Range [11, 24] | Range [11, 27] | Range [11, 28] | Range [11, 36]
1 to 16 µg/mL: MIC range [10]
16-55 °C: temperature range of activity [2]
slight trailing effect: trailing effect [7]
none: Trailing [4, 12] | Trailing [4, 14] | Trailing [4, 15] | Trailing [4, 16] | Trailing ([4]; CAMHB, 25% horse serum, Thawed)
64 µg/mL: MIC ([3]; standard conditions, CA-MHB / MHBII) | MIC90 ([9]; CA-MHB)
0.5 µg/mL: MIC50 [11, 17] | MIC50 [11, 18] | MIC50 [11, 19] | MIC50 [11, 20] | MIC50 [11, 21] | MIC50 [11, 22] | MIC50 [11, 23] | MIC50 [11, 24] | MIC50 [11, 27] | MIC50 [11, 28] | MIC50 [11, 29] | MIC50 [11, 30] | MIC50 [11, 31] | MIC50 [11, 32] | MIC50 [11, 33] | MIC50 [11, 34] | MIC50 ([11]; Final pH: Adjusted to pH 7.0) | MIC50 ([11]; Final pH: Unadjusted (pH 7.4)) | MIC50 [11, 35] | MIC50 [11, 36] | MIC50 [11, 37] | MIC50 [11, 38]
0.25-2: Range [4, 14] | Range [4, 15] | Range [11, 40] | Range [11, 42] | Range [11, 43] | Range [11, 44] | Range [11, 45] | Range [11, 47]
2 µg/mL: MIC90 [11, 25] | MIC90 [11, 26]
256: MIC90 ([4]; CAMHB, 0.5 mM DTT, Thawed)
8 µg/mL: MIC90 [10]
16 µg/mL: MIC ([8]; MHBII alone)
0.125-2: Range [4, 12]
0.5 to 2 µg/mL: Range [11, 25] | Range [11, 26]
9.2: pI [6]
strong: Trailing [4, 13] | Trailing ([4]; CAMHB, 0.5 mM DTT, Thawed) | Trailing ([4]; CAMHB, Fresh dilutions) | Trailing ([4]; CAMHB, Thawed (frozen-thawed dilution panels))
no significant effect: effect of prolonged incubation of panels at −80° C. on MIC ([11]; assayed up to 365 days)
0.25 to 2 µg/mL: Range [11, 18] | Range [11, 19] | Range [11, 21] | Range [11, 22] | Range [11, 29] | Range [11, 30] | Range [11, 31] | Range [11, 32] | Range [11, 33] | Range [11, 34] | Range ([11]; Final pH: Adjusted to pH 7.0) | Range ([11]; Final pH: Adjusted to pH 8.0) | Range ([11]; Final pH: Unadjusted (pH 7.4)) | Range [11, 35] | Range [11, 37] | MIC range [11, 38]
0.25-1: Range [11, 39] | Range [11, 41] | Range [11, 46]
128: MIC50 [4, 13] | MIC90 [4, 13] | MIC50 ([4]; CAMHB, 0.5 mM DTT, Thawed)
0.5-8: Range ([4]; CAMHB, 25% horse serum, Thawed)
8-256: Range [4, 13]
~70%: S. aureus strains showing trailing (or Eagle) effect ([9]; broth microdilution (BMD))
0.5-4: Range [4, 16]
1 µg/mL: MIC ([3]; human blood) | MIC ([8]; 100% human serum) | MIC90 ([9]; human blood/serum/plasma) | MIC90 [11, 17] | MIC90 [11, 18] | MIC90 [11, 19] | MIC90 [11, 20] | MIC90 [11, 21] | MIC90 [11, 22] | MIC90 [11, 23] | MIC90 [11, 24] | MIC50 [11, 25] | MIC50 [11, 26] | MIC90 [11, 27] | MIC90 [11, 28] | MIC [11, 29] | MIC [11, 30] | MIC [11, 31] | MIC [11, 32] | MIC [11, 33] | MIC [11, 34] | MIC90 ([11]; Final pH: Adjusted to pH 7.0) | MIC50 ([11]; Final pH: Adjusted to pH 8.0) | MIC90 ([11]; Final pH: Adjusted to pH 8.0) | MIC90 ([11]; Final pH: Unadjusted (pH 7.4)) | MIC90 [11, 35] | MIC90 [11, 36] | MIC90 [11, 37] | MIC90 [11, 38]
~5 h: half-life in MHB [5]
0.5: MIC50 [4, 14] | MIC50 [4, 15] | MIC^50 [11, 39] | MIC^90 [11, 39] | MIC^50 [11, 40] | MIC^50 [11, 41] | MIC^90 [11, 41] | MIC^50 [11, 42] | MIC^50 [11, 43] | MIC^90 [11, 43] | MIC^50 [11, 44] | MIC^50 [11, 45] | MIC^50 [11, 46] | MIC^90 [11, 46] | MIC^50 [11, 47] | MIC^90 [11, 47]
6-9.7 pH: pH range of activity [2]
1: MIC90 [4, 14] | MIC90 [4, 15] | MIC^90 [11, 40] | MIC^90 [11, 42] | MIC^90 [11, 44] | MIC^90 [11, 45]
